Experimental data from patent US20260226179A1 (MAB DESIGNS, published 2026).
Several values for one entry are separate records, joined by “and”; a condition that tells them apart may be missing. Equal entries are not always repeated.

T1: human membrane-bound IL-6R subunit alpha (human, UniProt P08887 20-468)
T1 sequence: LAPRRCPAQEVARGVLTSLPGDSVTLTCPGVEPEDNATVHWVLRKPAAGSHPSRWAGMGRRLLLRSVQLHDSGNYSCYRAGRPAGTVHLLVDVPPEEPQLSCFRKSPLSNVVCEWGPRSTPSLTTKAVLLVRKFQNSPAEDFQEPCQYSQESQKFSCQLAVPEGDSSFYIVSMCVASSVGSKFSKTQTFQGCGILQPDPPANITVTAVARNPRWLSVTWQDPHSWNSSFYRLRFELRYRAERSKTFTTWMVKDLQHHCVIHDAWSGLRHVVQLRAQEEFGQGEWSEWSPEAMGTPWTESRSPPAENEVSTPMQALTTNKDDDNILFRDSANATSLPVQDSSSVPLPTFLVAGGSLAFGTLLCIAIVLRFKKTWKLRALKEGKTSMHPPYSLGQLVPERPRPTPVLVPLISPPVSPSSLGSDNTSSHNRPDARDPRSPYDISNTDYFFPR

T2: murine soluble IL-6R (mouse, UniProt P22272 20-347, limits assumed)
T2 sequence: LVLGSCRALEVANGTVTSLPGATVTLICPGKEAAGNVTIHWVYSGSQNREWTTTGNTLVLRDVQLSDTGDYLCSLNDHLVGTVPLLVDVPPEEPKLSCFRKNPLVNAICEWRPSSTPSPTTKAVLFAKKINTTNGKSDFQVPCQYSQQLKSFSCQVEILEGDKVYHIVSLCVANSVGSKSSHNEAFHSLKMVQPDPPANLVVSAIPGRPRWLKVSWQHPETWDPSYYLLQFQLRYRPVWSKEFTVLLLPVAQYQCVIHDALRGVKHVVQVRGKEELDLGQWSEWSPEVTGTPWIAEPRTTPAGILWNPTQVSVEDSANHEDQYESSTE

T3: human soluble IL-6R (human, UniProt P08887 20-357, limits assumed)
T3 sequence: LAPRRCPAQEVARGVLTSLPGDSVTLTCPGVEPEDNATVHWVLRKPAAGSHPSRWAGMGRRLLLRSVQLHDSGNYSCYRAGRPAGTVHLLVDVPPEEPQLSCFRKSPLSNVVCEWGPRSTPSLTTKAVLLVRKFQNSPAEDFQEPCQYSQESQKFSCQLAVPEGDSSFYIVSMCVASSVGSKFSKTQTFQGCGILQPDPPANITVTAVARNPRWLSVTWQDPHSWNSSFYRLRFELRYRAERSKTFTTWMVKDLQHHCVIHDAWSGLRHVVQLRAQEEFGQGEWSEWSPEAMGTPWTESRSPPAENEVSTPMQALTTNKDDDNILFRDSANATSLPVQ

T4: mouse membrane-bound IL-6R subunit alpha (mouse, UniProt P22272 20-460)
T4 sequence: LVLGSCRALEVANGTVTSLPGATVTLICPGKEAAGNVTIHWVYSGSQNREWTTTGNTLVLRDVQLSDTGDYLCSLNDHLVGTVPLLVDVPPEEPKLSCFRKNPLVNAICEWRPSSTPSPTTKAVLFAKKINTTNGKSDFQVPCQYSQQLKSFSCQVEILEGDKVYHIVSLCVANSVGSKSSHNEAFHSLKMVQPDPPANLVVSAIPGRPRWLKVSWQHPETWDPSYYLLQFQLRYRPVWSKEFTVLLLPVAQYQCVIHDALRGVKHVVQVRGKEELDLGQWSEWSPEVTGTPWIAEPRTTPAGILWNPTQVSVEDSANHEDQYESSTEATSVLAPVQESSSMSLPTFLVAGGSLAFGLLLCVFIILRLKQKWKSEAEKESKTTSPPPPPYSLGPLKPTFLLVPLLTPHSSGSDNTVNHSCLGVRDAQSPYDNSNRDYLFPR


How the values were obtained:
Test in all cases: cell-based or functional assay
[1] = molecular target: T1, human membrane-bound IL-6R subunit alpha
murine soluble IL-6R = molecular target: T2, murine soluble IL-6R
[2] = molecular target: T1, human membrane-bound IL-6R subunit alpha; remark: listed apart in the source
[3] = molecular target: T1, human membrane-bound IL-6R subunit alpha; remark: listed apart in the source
human soluble IL-6R [4] = molecular target: T3, human soluble IL-6R
[5] = molecular target: T4, mouse membrane-bound IL-6R subunit alpha
[6] = molecular target: Hyper-IL-6 (recombinant fusion protein consisting of IL-6 and soluble IL-6R)
[7] = molecular target: T1, human membrane-bound IL-6R subunit alpha; remark: listed apart in the source
[8] = molecular target: T1, human membrane-bound IL-6R subunit alpha; remark: listed apart in the source
human soluble IL-6R [9] = molecular target: T3, human soluble IL-6R; remark: listed apart in the source
[10] = molecular target: T4, mouse membrane-bound IL-6R subunit alpha; remark: listed apart in the source

Row | Binder | STAT3 phosphorylation in % in HEK293_IL-6R cells (10 ng/ml IL-6 + 200 ng/ml sIL-6R = 100%, mixed signalling), IgG at 1 µg/ml [1] [%] | Proliferation in % of Ba/F3_gp130 cells (10 ng/ml murine IL-6 + 200 ng/ml murine soluble IL-6R = 100%), IgG at 10 µg/ml (murine soluble IL-6R) [%] | STAT3 phosphorylation in % in HEK293_IL-6R cells (10 ng/ml IL-6 for 30 min = 100%), IgG at 1 µg/ml [2] [%] | Proliferation in % of Ba/F3_gp130_IL-6R cells with 10 ng/ml IL-6 and 200 ng/ml sIL-6R (mixed signalling), IgG at 1 µg/ml [3] [%] | Proliferation in % of Ba/F3_gp130_IL-6R cells with 10 ng/ml IL-6 and 200 ng/ml sIL-6R (mixed signalling), IgG at 10 µg/ml [3] [%] | IC50 of inhibition of proliferation of Ba/F3_gp130 cells induced by 10 ng/ml IL-6 and 200 ng/ml sIL-6R (human soluble IL-6R [4]) | Proliferation in % of Ba/F3_gp130_muIL-6R cells (10 ng/ml murine IL-6 = 100%), IgG at 10 µg/ml [5] [%] | IC50 of inhibition of proliferation of Ba/F3_gp130 cells induced by 28 ng/ml Hy-IL-6 [6] | IC50 for inhibition of IL-6 classical signalling-induced proliferation [7] [µM] | Proliferation in % of Ba/F3_gp130_IL-6R cells (10 ng/ml IL-6 = 100%), IgG at 1 µg/ml [8] [%] | Proliferation in % of Ba/F3_gp130_IL-6R cells (10 ng/ml IL-6 = 100%), IgG at 10 µg/ml [8] [%] | STAT3 phosphorylation in % in HEK293 cells (10 ng/ml IL-6 + 200 ng/ml sIL-6R for 30 min = 100%), IgG at 1 µg/ml (human soluble IL-6R [9]) [%] | Proliferation in % of Ba/F3_gp130_muIL-6R cells (10 ng/ml murine IL-6 + 200 ng/ml murine soluble IL-6R = 100%, mixed signalling), IgG at 10 µg/ml [10] [%]
1 | anti-IL-6R IgG antibody 07 (C07 antibody, Fab chimerized with human IgG1) (antibody, V domains shown) VH: EVKLVESGGGLVQPGGSLKLSCAASGFTFSSYAMSWVRQTADKRLELVANINSNGGSTYYPDSVKGRFTISRDNAKNTLFLQMSSLKSEDTAMYYCAREGYYTMDYWGQGTSVTVSS VL: DIVLTQSPASLAVSPGQRATISCRASESVDSYGNSFMNWYQQKPGQPPKLLIYLASNLESGVPARFSGSGSRTDFTLTIDPVEADDAATYYCQQNNEDPYTFGGGTKLEIK | 105 | 104 | 86.2 | 93 | 85.9 | 757 ng/ml and 5 nM | 101 | 644 ng/ml and 4.3 nM | > 0.053 | 92 | 90.8 | 2.8 | 108
2 | anti-IL-6R IgG antibody 09 (C09 antibody, Fab chimerized with human IgG1) (antibody, V domains shown) VH: EVQLVESGGDLVQPGGSLKLSCAASGFTFSNYGMSWVRQTPDKRLELVAAINSNGGSTYYPDSVKGRFTISRDNAKNTLYLQMSSLKSEDTAMYYCARDGNYVSDYWGQGTTLTVSS VL: DIVLTQSPASLAVSLGQRATISCRASESVDSYGNSFMHWYQQKPGQPPKLLIYLASNLESGVPARFSGSGSRTDFTLTIDPVEADDAATYYCQQNNEDPWTFGGGTKLEIK | 102 | 104 | 69.7 | 101 | 97.6 | 5260 ng/ml and 35 nM | 104 | 4130 ng/ml and 28 nM | > 0.053 | 100 | 94 | 20 | 106
3 | anti-IL-6R IgG antibody 12 (C12 antibody, Fab chimerized with human IgG1) (antibody, V domains shown) VH: EVKLMESGGGLVQPGGSLKLSCAASGFTFSNYGMSWVRQTPDKRLEWVANINSNGGSTYYPDSVKGRFTISRDNAQNTLYLQMSSLKSEDTAMYYCTRDGNFVSDYWGQGTTLTVSS VL: DIVLTQSPASLAVSPGQRATISCRASESVDSYGNSFMNWYQQKPGQPPKLLIYLASNLESGVPARFSGSGSRTDFTLTIDPVEADDAATYYCQQNNEDPYTFGGGTKLEIK | 99.9 | 106 | 97.8 | 94.3 | 87.6 | 863 ng/ml and 5.8 nM | 102 | 748 ng/ml and 5 nM | > 0.053 | 94.3 | 92.2 | 4 | 114

More lines, now with the values ahead:

Row | STAT3 phosphorylation in % in HEK293_IL-6R cells (10 ng/ml IL-6 + 200 ng/ml sIL-6R = 100%, mixed signalling), IgG at 1 µg/ml [1] [%] | Proliferation in % of Ba/F3_gp130 cells (10 ng/ml murine IL-6 + 200 ng/ml murine soluble IL-6R = 100%), IgG at 10 µg/ml (murine soluble IL-6R) [%] | STAT3 phosphorylation in % in HEK293_IL-6R cells (10 ng/ml IL-6 for 30 min = 100%), IgG at 1 µg/ml [2] [%] | Proliferation in % of Ba/F3_gp130_IL-6R cells with 10 ng/ml IL-6 and 200 ng/ml sIL-6R (mixed signalling), IgG at 1 µg/ml [3] [%] | Proliferation in % of Ba/F3_gp130_IL-6R cells with 10 ng/ml IL-6 and 200 ng/ml sIL-6R (mixed signalling), IgG at 10 µg/ml [3] [%] | IC50 of inhibition of proliferation of Ba/F3_gp130 cells induced by 10 ng/ml IL-6 and 200 ng/ml sIL-6R (human soluble IL-6R [4]) | Proliferation in % of Ba/F3_gp130_muIL-6R cells (10 ng/ml murine IL-6 = 100%), IgG at 10 µg/ml [5] [%] | IC50 of inhibition of proliferation of Ba/F3_gp130 cells induced by 28 ng/ml Hy-IL-6 [6] | IC50 for inhibition of IL-6 classical signalling-induced proliferation [7] [µM] | Proliferation in % of Ba/F3_gp130_IL-6R cells (10 ng/ml IL-6 = 100%), IgG at 1 µg/ml [8] [%] | Proliferation in % of Ba/F3_gp130_IL-6R cells (10 ng/ml IL-6 = 100%), IgG at 10 µg/ml [8] [%] | STAT3 phosphorylation in % in HEK293 cells (10 ng/ml IL-6 + 200 ng/ml sIL-6R for 30 min = 100%), IgG at 1 µg/ml (human soluble IL-6R [9]) [%] | Proliferation in % of Ba/F3_gp130_muIL-6R cells (10 ng/ml murine IL-6 + 200 ng/ml murine soluble IL-6R = 100%, mixed signalling), IgG at 10 µg/ml [10] [%] | Binder
4 | 98.4 | 108 | 89.5 | 104 | 95.2 | 1210 ng/ml and 8 nM | 105 | 755 ng/ml and 5 nM | > 0.053 | 100 | 93.1 | 6.9 | 116 | anti-IL-6R IgG antibody 19 (C19 antibody, Fab chimerized with human IgG1) (antibody, V domains shown) VH: EVKLMESGGGLVQPGGSLKLSCAASGFTFSNYGMSWVRQTPDKRLELVAIMNSKGGSTYYPDSVMGRFTISRDNAKNTLYLQMSSLKSEDTAMYYCARDGYYTMDYWGQGTSVTVSS VL: DIVLTQSPASLAVSLGQRATISCRASKSVDSFGNSFMHWYQQKPGQSPRLLIFLASNLESGVPARFSGSGSRTDFTLTIDPVEADDAATYYCQQNNEDPYTFGGGTKLEIK
5 | 88.1 | 86.2 | 86.9 | 94.7 | 88.6 | 531 ng/ml and 3.5 nM | 108 | 304 ng/ml and 2 nM | > 0.053 | 92.6 | 87.6 | 0.2 | 114 | anti-IL-6R IgG antibody 20 (C20 antibody, Fab chimerized with human IgG1) (antibody, V domains shown) VH: EVKLMESGGGLVQPGGSLKLSCAASGFTFSNYGMSWVRQTPDKRLELVAIINSNGGSTYYPDSVKGRFTISRDNAKNTLYLQMSSLKSEDTAIYYCARDGNFVSDYWGQGTTLTVSS VL: DIVLTQSPASLAVSLGQRATISCRASESVDSYGNRFLNWYQQKPGQPPKLLIYLASNLESGVPARFSGSGSRTDFTLTIDPVEADDAATYYCQQNNEDPYTFGGGTKLEIK
